In paper PMC5318444:

Tests used:
[1] = system: RpoN (sigma54) (Escherichia coli (CFT073?)), ORF:8ae15e91; assay: EMSA; settings: 10 mM Tris pH 7.5, 1 mM EDTA, 1 mM DTT, 50 mM KCl, 50 mM MgCl2, 1 ug/ml BSA; 10 nM DNA, protein 0-240 nM; 30 min room temperature (ArcA, RpoN) …
[2] = target: T1, ArcA (Escherichia coli (uropathogenic CFT073?)) (UniProt P0A9Q2); assay: EMSA; settings: 10 mM Tris pH 7.5, 1 mM EDTA, 1 mM DTT, 50 mM KCl, 50 mM MgCl2, 1 ug/ml BSA; 10 nM DNA, protein 0-240 nM; 30 min room temperature (ArcA, RpoN) …
T1 sequence: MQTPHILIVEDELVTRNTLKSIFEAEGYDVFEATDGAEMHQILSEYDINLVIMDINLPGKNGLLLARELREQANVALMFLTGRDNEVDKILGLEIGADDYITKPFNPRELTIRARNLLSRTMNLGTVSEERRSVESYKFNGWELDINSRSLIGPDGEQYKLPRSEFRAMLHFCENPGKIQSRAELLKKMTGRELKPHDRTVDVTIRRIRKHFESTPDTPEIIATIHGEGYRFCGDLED

Sequence	binding [1]	binding [2]
ATCTGTGTGGTAAGAGAATCACCTTTTATTTACTGTGCGGAAAACCGCGCACAAAATAAAAAGAATAAATAATAAAATCATTAAATAACAAAGCGTTATTAAAAAATTAAAGATGGCATAGCTCCTGCAATAGCCAGGCAGGTTTTTTATTTTTCACAATGAGGTGAATATGTCATCAATATCCCATGGCGCACCACAAAAGCGTCGAATTATCCCTAATCCCGGCCTGTGGTT (double strand) [c5038 promoter probe]	binds	no binding
ATGTTAAGCATGATAACGCCTTTTAGGGGCAATTTAAAAGTTGGCACAGATTTCGCTTTATCTTTTTTACGGCGACACGGCCCATTTAATTGCAGATTTCGTTACCACGACGACAATGACCAATCCAGGAGAGTTAAAGTATGTCCGCTGAACACGTACTGACGATGCTGAACGAGCACGAAGTGAAGTTTGTTG (double strand) [glnA promoter probe]	binds	
GGCGCGTCTTATACTCCCACATAAGCCAGATTCAACAGCGAATACGTCTTCCCCAAATTGCCCACTTCCATACTTCCTCCTTACCAGAAATCTATCCTTAAGCTCCTTAATAACCATTTTCCTGCTAACTAAATTCATGGTTAAGGTTGCATAATGATATGCAACAAATGTATAACATTTTTCTTACCAAAAAATAAACAAAAGCGACCGACAAAAGCATTGGATTACGGCAGGAG (double strand) [kgtP promoter probe]		binds
TGCGCAATTGTACTTATTGCATTTTTCTCTTCGAGGAATTACCCAGTTTCATCATCCCATTTTATTTTGCGAGCGAGCGCACACTTGTGAATTATCTCAATAGCAGTGTGAAATAACATAATTGAGCAACTGAAAGGGAGTGCCCAATATTACGACATCATCCATCACCCGCGGCATTACCTGATTATGGAGTTCAATATGCAAGCCT (double strand) [xylA promoter probe]	no binding	
